# Results as given in patent US20150299265A1 (Molecular Partners, published 2015).
# B1: DARPin #63 (designed binder)
# chain: MRGSHHHHHHGSDLGAKLLSDLGVKLLWAAARGQDDEVRILLAAGADVNAKDFQGITPLHIAAQSGHLEIVEVLLKAGADVNAKDVTGDTPLHLAAQHGHLVIVEVLLKAGADVNAQDERGWTPADLAADWGHEDIAEVLQKLGGGGSGGGGSRSDLGKKLLEAARAGQDDEVRILMANGADVNAKDEYGLTPLYLATAHGHLEIVEVLLKNGADVNAVDAIGFTPLHLAAFIGHLEIAEVLLKHGADVNAQDKFGKTAFDISIGNGNEDLAEILQKAAGGGSGGGSC
# modifications: PEGylated at its C-terminal Cys residue
# B2: DARPin #67 (designed binder)
# chain: MRGSHHHHHHGSDLGAKLLSDLGVKLLWAAARGQDDEVRILLAAGADVNAKDFQGITPLHIAAQSGHLEIVEVLLKAGADVNAKDVTGDTPLHLAAQHGHLVIVEVLLKAGADVNAQDERGWTPADLAADWGHEDIAEVLQKAAGGGGSDLGKKLLEAARAGQDDEVRILMANGADVNAKDEYGLTPLYLATAHGHLEIVEVLLKNGADVNAVDAIGFTPLHLAAFIGHLEIAEVLLKHGADVNAQDKFGKTAFDISIGNGNEDLAEILQKAA
# B3: DARPin #64 (designed binder)
# chain: MRGSHHHHHHGSDLGKKLLEAARAGQDDEVRILMANGADVNAKDYFSHTPLHLAARNGHLKIVEVLLKAGADVNAKDFAGKTPLHLAANDGHLEIVEVLLKHGADVNAQDIFGKTPADIAADAGHEDIAEVLQKLGGGGSGGGGSGGGGSGGGGSRSDLGAKLLSDLGVKLLWAAARGQDDEVRILLAAGADVNAKDFQGITPLHIAAQSGHLEIVEVLLKAGADVNAKDVTGDTPLHLAAQHGHLVIVEVLLKAGADVNAQDERGWTPADLAADWGHEDIAEVLQKLGGGGSGGGGSRSDLGKKLLEAARAGQDDEVRILMANGADVNAKDEYGLTPLYLATAHGHLEIVEVLLKNGADVNAVDAIGFTPLHLAAFIGHLEIAEVLLKHGADVNAQDKFGKTAFDISIGNGNEDLAEILQKLN
# B4: DARPin #35 (designed binder)
# chain: MRGSHHHHHHGSDLGIKLLFAAAKGQDDEVRILLAAGADVNAKDFEGYTPLHVAAYDGHLEIVEVLLKAGADVNAKDSQGRTPLHEAAYSGHLEIVEVLLKAGADVNAQDDAGETPADLAAAWGHEDIAEVLQKLGGGGSGGGGSRSDLGIKLLQAANLGQDDEVRILLATGADVNAKDSIGQTPLHWAARRGHLEIVEVLLKAGADVNAKDEYGVTPLHLAASLGHLEIVEVLLKAGADVNAQDESGETPADLAALHGHEDIAEVLQKLN
# B5: DARPin #68 (designed binder)
# chain: MRGSHHHHHHGSDLGAKLLSDLGVKLLWAAARGQDDEVRILLAAGADVNAKDFQGITPLHIAAQSGHLEIVEVLLKAGADVNAKDVTGDTPLHLAAQHGHLVIVEVLLKAGADVNAQDERGWTPADLAADWGHEDIAEVLQKAAGSPTPTPTTPTPTPTTPTPTPTGSDLGKKLLEAARAGQDDEVRILMANGADVNAKDEYGLTPLYLATAHGHLEIVEVLLKNGADVNAVDAIGFTPLHLAAFIGHLEIAEVLLKHGADVNAQDKFGKTAFDISIGNGNEDLAEILQKAA
# B6: DARPin #66 (designed binder)
# chain: MRGSHHHHHHGSDLGAKLLSDLGVKLLWAAARGQDDEVRILLAAGADVNAKDFQGITPLHIAAQSGHLEIVEVLLKAGADVNAKDVTGDTPLHLAAQHGHLVIVEVLLKAGADVNAQDERGWTPADLAADWGHEDIAEVLQKAAGSDLGKKLLEAARAGQDDEVRILMANGADVNAKDEYGLTPLYLATAHGHLEIVEVLLKNGADVNAVDAIGFTPLHLAAFIGHLEIAEVLLKHGADVNAQDKFGKTAFDISIGNGNEDLAEILQKAA
# B7: DARPin #65 (designed binder)
# chain: MRGSHHHHHHGSDLGAKLLSDLGVKLLWAAARGQDDEVRILLAAGADVNAKDFQGITPLHIAAQSGHLEIVEVLLKAGADVNAKDVTGDTPLHLAAQHGHLVIVEVLLKAGADVNAQDERGWTPADLAADWGHEDIAEVLQKLGGGGSGGGGSRSDLGKKLLEAARAGQDDEVRILMANGADVNAKDEYGLTPLYLATAHGHLEIVEVLLKNGADVNAVDAIGFTPLHLAAFIGHLEIAEVLLKHGADVNAQDKFGKTAFDISIGNGNEDLAEILQKLNKLGGGGSGGGGSGGGGSGGGGSRSDLGKKLLEAARAGQDDEVRILMANGADVNAKDYFSHTPLHLAARNGHLKIVEVLLKAGADVNAKDFAGKTPLHLAANDGHLEIVEVLLKHGADVNAQDIFGKTPADIAADAGHEDIAEVLQKLN
# B8: DARPin #60 (designed binder)
# chain: MRGSHHHHHHGSDLGVKLLWAAARGQDDEVRELLKAGADVNAKDFQGITPLHIAAQSGHLEIVEVLLKAGADVNAKDVTGDTPLHLAAQHGHLEIVEVLLKAGADVNAQDERGWTPADLAADWGHEDIAEVLQKLN
# notes: monovalent
# B9: DARPin #4 (designed binder)
# chain: MRGSHHHHHHGSDLGVKLLWAAARGQDDEVRELLKAGADVNAKDFQGITPLHIAAQSGHLEIVEVLLKAGADVNAKDVTGDTPLHLAAQHGHLEIVEVLLKAGADVNAQDERGKTPADLAADWGHEDIAEVLQKLN
# notes: The list of constructs skips DARPin #4
# B10: DARPin #1 (designed binder)
# chain: MRGSHHHHHHGSDLGVKLLWAAARGQDDEVRILLAAGADVNAKDFQGITPLHIAAQSGHLEIVEVLLKAGADVNAKDVTGDTPLHLAAQHGHLVIVEVLLKAGADVNAQDERGWTPADLAADWGHEDIAEVLQKLN
# notes: monovalent
# B11: DARPin #57 (designed binder)
# chain: MRGSHHHHHHGSDLGIKLLWAAAQGQDDEVRILLAAGADVNAKDFQGVTPLHIAAQSGHLEVVEVLLKAGADVNAKDVTGDTPLHLAAQHGHLEIVEVLLKAGADVNAQDERGWTPADLAADWGHEDIAEVLQKLN
# notes: monovalent
# B12: DARPin #56 (designed binder)
# chain: MRGSHHHHHHGSDLGQKLLIAASRGQDDEVRILLAAGADVNAKDFQGVTPLHIAAQSGHLEIVEVLLKAGADVNAKDVTGDTPLHLAAQHGHLEIVEVLLKAGADVNAQDERGWTPTDLAADWGHEDIAEVLQKLN
# notes: monovalent
# B13: DARPin #58 (designed binder)
# chain: MRGSHHHHHHGSDLGFKLLFAAAKSQDDEVRILLAAGADVNAKDFQGVTSLHIAAQSGHLEIVEVLLKAGADVNAKDVTGDTPLHLAAQHGHLEIVEVLLKAGADVNAQDERGWTPADLAADWGHEDIAEVLQKLN
# notes: monovalent
# B14: DARPin #3 (designed binder)
# chain: MRGSHHHHHHGSDLGIKLLFAAAKSQDDEVRILLAAGADVNAKDFQSVTPLHIAAQSGHLEIVEVLLKAGADVNAKDVTGDTPLHLAAQHGHLEIVEVLLKAGADVNAQDERGWTPADLAADWGHEDIAEVLQKLN
# notes: monovalent
# B15: DARPin #59 (designed binder)
# chain: MRGSHHHHHHGSDLGVKLLWAAARGQDDEVRELLKAGADVNAKDFQGITPLHIAATNGHLEIVEVLLKAGADVNAKDITGETPLHHAADSGHLEIVEVLLKAGADVNAQDKAGVTPADLAAAWGHEDIAEVLQKLN
# notes: monovalent
# B16: DARPin #2 (designed binder)
# chain: MRGSHHHHHHGSDLGVKLLWAAARGQDDEVRELLKAGADVNAKDFQGITPLHIAATSGHLEIVEVLLKAGADVNAKDITGETPLHHAADSGHLEIVEVLLKAGADVNAQDKAGVTPADLAAAWGHEDIAEVLQKLN
# notes: monovalent
# B17: DARPin #54 (designed binder)
# chain: MRGSHHHHHHGSDLGIKLLFAAAKGQDDEVRELLKAGADVNAKDFQGVTPLHIAAQSGHLEIVEVLLKAGADVNAKDVTGDTPLHLAAQHGHLEIVEVLLKAGADVNAQDERGWTPADLAADWGHEDIAEVLQKLN
# notes: monovalent
# B18: DARPin #6 (designed binder)
# chain: MRGSHHHHHHGSDLGVNLLWAATRGQDDEVRILLAAGADVNAKDFEGVTPLHLAAQWGHLEIVEVLLKAGADVNAKDVTGDTPLHLAAQHGHLEIVEVLLKAGADVNAQDERGWTPADLAADWGHEDIAEVLQKLN
# notes: monovalent
# B19: DARPin #55 (designed binder)
# chain: MRGSHHHHHHGSDLGIKLLIAASHGQDDEVRILLAAGANVNAKDFQGVTPLHIAAQSGHLEIVEVLLKAGADVNAKDVTGDTPLHLAAQHGHLEIVEVLLKAGADVNAQDERGWTPADLAADWGHEDIAEVLQKLN
# notes: monovalent
# B20: DARPin #10 (designed binder)
# chain: MRGSHHHHHHGSDLGVKLLWAASHGQDDEVRILLAAGADVNAKDFFGITPLHQAAWGHLEIVEVLLKAGADVNAKEEDGTTPLHLAATHGHLEIVEVLLKAGADVNAQDWYGTTPADLAAWWGHEDIAEVLQKLN
# notes: monovalent
# B21: DARPin #11 (designed binder)
# chain: MRGSHHHHHHGSDLGIKLLFAASRGQDDEVRILLAAGADVNAKDFEGITPLHAAARSGHLEIVEVLLKAGADVNAKDVEGWTPLHYAASYGHLEIVEVLLKAGADVNAQDNHGATPADLAAQWGHEDIAEVLQKLN
# notes: monovalent
# Biological target: Human HER2 expressed on tumour cells (human, UniProt P04626 23-1255)
# Experiment: cell-based or functional assay
Binder,"% activity vs. DARPin # 41, BT474 cell proliferation [%]","IC50 [nM], inhibition of BT474 cell proliferation (BrdU) [nM]"
B1,100,1.77
B2,100,4.87
B3,100,2.31
B4,63,4.63
B5,100,5.35
B6,100,4.06
B7,100,4.07

# Biological target: T1, Recombinant human HER2 ectodomain (human, UniProt P04626 23-652, biotinylated on primary amines (for SPR and crude extract ELISA))
# T1 construct: extracellular domain; also called ErbB2; ectodomain of human HER2; not shown: Flag tag
# Experiment: SPR (ProteOn); biotinylated human HER2 on neutravidin chip, monovalent DARPin injected
# Experimental: Protein binding kinetics of interesting purified HER2-binding DARPins were assayed by Surface Plasmon Resonance (SPR) analysis with a ProteOn array system (BioRad) using a setup, where biotinylated human HER2 was immobilized via neutravidin and the interaction was measured by adding free monovalent DARPin. The determination of Kd values was performed according to standard procedures.
# SPR was measured using a ProteOn instrument (BioRad) and measurement was performed according standard procedures known to the person skilled in the art. The running buffer was PBS, pH 7.4, containing 0.005% Tween 20®. Neutravidin was covalently immobilized on a GLC chip (BioRad) to a level of about 8000 resonance units (RU). Immobilization of HER2 on the neutravidin coated chip was then performed. […] The signals (i.e. resonance unit (RU) values) of an uncoated reference cell and a reference injection (i.e. injection of running buffer only) were subtracted from the RU traces obtained after injection of […] (double-referencing). From the SRP traces obtained from the on-rate and off-rate measurements the on- and off-rate of the corresponding DARPin HER2 interaction can be determined.
# Dissociation constants (Kd) were calculated from the estimated on- and off-rates using standard procedures known to the person skilled in the art.
row,Binder,Kd [nM]
1,B8,0.0117
2,B9,0.186
3,B10,0.0781
4,B11,0.0604
5,B12,2
6,B13,0.0413
7,B14,0.0131
8,B15,0.0333
9,B16,0.875
10,B17,0.00927
11,B18,0.0292
12,B19,0.0873
13,B20,1.03
14,B21,0.256
